Measured values taken from the Immune Epitope Database (IEDB).

Columns and labels:
[1] = target: HLA-A*32:01; test: IEDB peptide-MHC binding, purified MHC/competitive/radioactivity; filed as Kd, often an IC50 or EC50 that approximates it; ≥ and ≤ were set here for values at or beyond the usual limits of such assays
[2] = target: HLA-B*57:01; test: as above
[3] = target: HLA-B*58:01; test: as above
[4] = target: HLA-B*48:01; test: IEDB peptide-MHC binding, purified MHC/direct/fluorescence; filed as Kd, often an IC50 or EC50 that approximates it; ≥ and ≤ were set here for values at or beyond the usual limits of such assays
[5] = target: HLA-A*02:03; test: IEDB peptide-MHC binding, purified MHC/competitive/radioactivity; filed as Kd, often an IC50 or EC50 that approximates it; ≥ and ≤ were set here for values at or beyond the usual limits of such assays
[6] = target: HLA-A*02:17; test: as above
[7] = target: HLA-B*18:01; test: IEDB peptide-MHC binding, purified MHC/direct/fluorescence; filed as Kd, often an IC50 or EC50 that approximates it; ≥ and ≤ were set here for values at or beyond the usual limits of such assays; settings: source organism: Yellow fever virus
[8] = target: HLA-A*02:01; test: IEDB peptide-MHC binding, purified MHC/competitive/radioactivity; filed as Kd, often an IC50 or EC50 that approximates it; ≥ and ≤ were set here for values at or beyond the usual limits of such assays
[9] = target: HLA-B*08:01; test: as above; settings: source organism: Dengue virus 2 Jamaica/1409/1983
[10] = target: HLA-A*02:06; test: as above
[11] = target: HLA-A*31:01; test: as above; settings: source organism: Dengue virus 2 Jamaica/1409/1983
[12] = target: HLA-A*01:01; test: IEDB peptide-MHC binding, purified MHC/direct/fluorescence; filed as Kd, often an IC50 or EC50 that approximates it; ≥ and ≤ were set here for values at or beyond the usual limits of such assays; settings: source organism: Homo sapiens
[13] = target: HLA-A*69:01; test: IEDB peptide-MHC binding, purified MHC/competitive/fluorescence; filed as Kd, often an IC50 or EC50 that approximates it; ≥ and ≤ were set here for values at or beyond the usual limits of such assays; settings: source organism: Homo sapiens
[14] = target: HLA-B*15:01; test: as above; settings: source organism: Homo sapiens
[15] = target: HLA-B*27:03; test: as above; settings: source organism: Homo sapiens
[16] = target: HLA-B*39:01; test: as above; settings: source organism: Homo sapiens
[17] = target: HLA-B*46:01; test: as above; settings: source organism: Homo sapiens
[18] = target: HLA-B*51:01; test: as above; settings: source organism: Homo sapiens
[19] = target: HLA-B*57:01; test: as above; settings: source organism: Homo sapiens
[20] = target: HLA-A*69:01; test: IEDB peptide-MHC binding, purified MHC/direct/fluorescence; filed as Kd, often an IC50 or EC50 that approximates it; ≥ and ≤ were set here for values at or beyond the usual limits of such assays; settings: source organism: dengue virus type 4
[21] = target: HLA-A*02:01; test: IEDB peptide-MHC binding, purified MHC/competitive/fluorescence; filed as Kd, often an IC50 or EC50 that approximates it; ≥ and ≤ were set here for values at or beyond the usual limits of such assays; settings: source organism: human gammaherpesvirus 4
[22] = target: HLA-A*02:03; test: as above; settings: source organism: human gammaherpesvirus 4
[23] = source organism: Dengue virus 1 Brazil/97-11/1997
[24] = source organism: Dengue virus 4 Philippines/H241/1956
[25] = source organism: Dengue virus 2 Jamaica/1409/1983
[26] = source organism: Dengue virus 4 Dominica/814669/1981
[27] = source organism: Dengue virus 1 Singapore/S275/1990

KSWLVHKQW
Kd [1, 23]: 16.9 nM
Kd [2, 23]: 5.87 nM
Kd [3, 23]: 3.03 nM

GQPIPIAGL
Kd ([4]; source organism: Mycobacterium tuberculosis C): 299 nM

MSSEGAWKHA
Kd [2, 24]: 134 nM
Kd [3, 24]: 254 nM

IMAVGMVSI
Kd [5, 25]: 8.29 nM
Kd [6, 25]: 785 nM
Kd [1, 25]: 20.4 nM

FLAHYIGTSL
Kd ([5]; source organism: Dengue virus 3 Martinique/1243/1999): 3.3 nM
Kd ([6]; source organism: Dengue virus 3 China/80-2/1980): 22.5 nM

ATGPILTLW
Kd [2, 26]: 8.07 nM
Kd [3, 26]: 13.1 nM

KTQAIDGEF
Kd [1, 26]: 640 nM
Kd [3, 26]: 287 nM

VQGFIFFFL
Kd [7]: ≥ 5000 nM

ILLTAVAPSM
Kd [8, 25]: 2490 nM
Kd [6, 25]: 5960 nM
Kd [9]: 8710 nM

GLNTFTNMEV
Kd [8, 24]: 3.82 nM
Kd [5, 23]: 15.3 nM
Kd [6, 24]: 421 nM

FLDLPLPWL
Kd [8, 25]: 10.3 nM
Kd [10, 25]: 127 nM
Kd [6, 25]: 9.46 nM

ERSWNSGHEW
Kd [3, 25]: 135 nM

HSSAAQRRGR
Kd [11]: 24.1 nM
Kd [2, 25]: 71.8 nM
Kd [3, 25]: 11300 nM

GLLCLTLFV
Kd [8, 24]: 2.44 nM
Kd [10, 24]: 16.4 nM
Kd [6, 24]: 8.47 nM

NTAINFFLY
Kd [12]: 3.6 nM
Kd [13]: ≥ 20000 nM
Kd [14]: ≥ 20000 nM
Kd [15]: ≥ 20000 nM
Kd [16]: ≥ 20000 nM
Kd [17]: ≥ 20000 nM
Kd [18]: ≥ 20000 nM
Kd [19]: ≥ 20000 nM

IMAVGLVSL
Kd [20]: ≥ 20000 nM
Kd [5, 24]: 0.16 nM
Kd [6, 24]: 802 nM

GLLFMILTV
Kd [8, 27]: 42.9 nM
Kd [6, 27]: 14300 nM
Kd [1, 23]: ≥ 77800 nM

KLARASFIEV
Kd [8, 27]: 14.9 nM
Kd [5, 23]: 20.1 nM
Kd [10, 23]: 22 nM
Kd [6, 27]: 705 nM

MASSVLLWMA
Kd [10, 27]: 90.6 nM
Kd [2, 27]: 859 nM
Kd [3, 27]: 223 nM

AVASGLLWV
Kd [8, 24]: 18.9 nM
Kd [5, 24]: 1.89 nM
Kd [10, 24]: 11.7 nM
Kd [6, 24]: 3300 nM

KTQRSGALW
Kd [2, 24]: 105 nM
Kd [3, 24]: 6.11 nM

SVRDRLARL
Kd [21]: 407 nM
Kd [22]: 12.3 nM

RRYGGGLVR
Kd ([4]; source organism: West Nile virus): ≥ 20000 nM
